Measurements: US11440969B2, “Use of human epididymis protein 4 (HE4) for assessing responsiveness of MUC 16-positive cancer treatment” (Genentech, Inc., priority 2016, dated 2022)

Test: Safety of DMUC5754A in patients: related adverse events, DLT, MTD/RP2D (NCI CTCAE v4.0)
Type: in vivo, human
Settings: for Median time to onset of first PN on study / On study PN = No, patients n (%) / On study PN = Yes, patients n (%): q3w dosing
Method: This multicenter, open-label, dose-escalation study was designed to identify the recommended Phase II dose (RP2D) of DMUC5754A in patients with platinum-resistant OC or unresectable pancreatic cancer. In the single-agent dose escalation stage utilizing a 3+3 enrollment scheme, patients were given intravenous DMUC5754A (Genentech Inc.) 0.3-3.2 mg/kg every 3 weeks (q3w) to evaluate the safety, tolerability, and pharmacokinetics of DMUC5754A. Following determination of the maximum tolerated dose (MTD), dose-expansion cohorts were enrolled at the RP2D of 2.4 mg/kg to further characterize the safety and preliminary clinical efficacy of DMUC5754A.
Dosing on a weekly (qlw) schedule was also evaluated at the RP2D, employing a 3+3 design to determine the MTD of weekly dosing, followed by a cohort expansion to further characterize the safety and activity of q1w dosing.
Safety was evaluated according to NCI CTCAE v4.0. […] The maximum tolerated dose (MTD) was defined as the dose at which ≤1 of 6 patients at an assigned dose with protocol-defined DLT. Patients who experienced a DLT or adverse event (AE) meeting DLT criteria after the DLT assessment window were allowed to delay dosing for up to 2 weeks or undergo a dose reduction.

[1] = q3w patients, over all dose levels

B1: DMUC5754A: antibody-drug conjugate: humanized IgG1 anti-MUC16 monoclonal antibody and MMAE, linked through protease labile linker maleimidocaproyl-valine-citrulline-p-aminobenzyloxycarbonyl (conjugate, chains of the INN, looked up)
VH: EVQLVESGGGLVQPGGSLRLSCAASGYSITNDYAWNWVRQAPGKGLEWVGYISYSGYTTYNPSLKSRFTISRDTSKNTLYLQMNSLRAEDTAVYYCARWTSGLDYWGQGTLVTVSS
VL: DIQMTQSPSSLSASVGDRVTITCKASDLIHNWLAWYQQKPGKAPKLLIYGATSLETGVPSRFSGSGSGTDFTLTISSLQPEDFATYYCQQYWTTPFTFGQGTKVEIK
modifications: MMAE via mc-vc-PABC linker
With B1 the “Pyrexia (related AE), patients” value (q3w 0.3 mg/kg (n = 3)) was 0, the “Vomiting (related AE), patients” value (q3w 0.3 mg/kg (n = 3)) was 0 and the “Alopecia (related AE), patients” value (q3w 0.6 mg/kg (n = 3)) was 0. For the same molecule, the “Any adverse events (related), patients” value (q3w 0.6 mg/kg (n = 3)) was 1, the “Arthralgia (related AE), patients” value (q3w 0.6 mg/kg (n = 3)) was 0 and the “Asthenia (related AE), patients” value (q3w 0.6 mg/kg (n = 3)) was 0. The “Decreased appetite (related AE), patients” value (q3w 0.6 mg/kg (n = 3)) was 0, the “Diarrhea (related AE), patients” value (q3w 0.6 mg/kg (n = 3)) was 1 and the “Dysgeusia (related AE), patients” value (q3w 0.6 mg/kg (n = 3)) was 0. For the same molecule, the “Fatigue (related AE), patients” value (q3w 0.6 mg/kg (n = 3)) was 1, the “Hypokalemia (related AE), patients” value (q3w 0.6 mg/kg (n = 3)) was 0 and the “Hypomagnesaemia (related AE), patients” value (q3w 0.6 mg/kg (n = 3)) was 0. The “Hypophosphatemia (related AE), patients” value (q3w 0.6 mg/kg (n = 3)) was 0, the “Nausea (related AE), patients” value (q3w 0.6 mg/kg (n = 3)) was 0 and the “Neutropenia (related AE), patients” value (q3w 0.6 mg/kg (n = 3)) was 0. The “Peripheral neuropathy (related AE), patients” value (“Peripheral neuropathy” below) (q3w 0.6 mg/kg (n = 3)) was 0, the “Pyrexia (related AE), patients” value (q3w 0.6 mg/kg (n = 3)) was 0 and the “Vomiting (related AE), patients” value (q3w 0.6 mg/kg (n = 3)) was 1. For the same molecule, the “Alopecia (related AE), patients” value (q3w 1.2 mg/kg (n = 3)) was 0, the “Any adverse events (related), patients” value (q3w 1.2 mg/kg (n = 3)) was 3 and the “Arthralgia (related AE), patients” value (q3w 1.2 mg/kg (n = 3)) was 0. The “Asthenia (related AE), patients” value (q3w 1.2 mg/kg (n = 3)) was 0, the “Decreased appetite (related AE), patients” value (q3w 1.2 mg/kg (n = 3)) was 2 and the “Diarrhea (related AE), patients” value (q3w 1.2 mg/kg (n = 3)) was 1. The “Dysgeusia (related AE), patients” value (q3w 1.2 mg/kg (n = 3)) was 0, the “Fatigue (related AE), patients” value (q3w 1.2 mg/kg (n = 3)) was 1 and the “Hypokalemia (related AE), patients” value (q3w 1.2 mg/kg (n = 3)) was 0. The “Hypomagnesaemia (related AE), patients” value (q3w 1.2 mg/kg (n = 3)) was 0, the “Hypophosphatemia (related AE), patients” value (q3w 1.2 mg/kg (n = 3)) was 0 and the “Nausea (related AE), patients” value (q3w 1.2 mg/kg (n = 3)) was 0. The “Neutropenia (related AE), patients” value (q3w 1.2 mg/kg (n = 3)) was 0, the “Peripheral neuropathy” value (q3w 1.2 mg/kg (n = 3)) was 0 and the “Pyrexia (related AE), patients” value (q3w 1.2 mg/kg (n = 3)) was 0. The “Vomiting (related AE), patients” value (q3w 1.2 mg/kg (n = 3)) was 1, the “Alopecia (related AE), patients” value (q3w 1.8 mg/kg (n = 3)) was 1 and the “Any adverse events (related), patients” value (q3w 1.8 mg/kg (n = 3)) was 2. The “Arthralgia (related AE), patients” value (q3w 1.8 mg/kg (n = 3)) was 2, the “Asthenia (related AE), patients” value (q3w 1.8 mg/kg (n = 3)) was 0 and the “Decreased appetite (related AE), patients” value (q3w 1.8 mg/kg (n = 3)) was 1. For the same molecule, the “Diarrhea (related AE), patients” value (q3w 1.8 mg/kg (n = 3)) was 2, the “Dysgeusia (related AE), patients” value (q3w 1.8 mg/kg (n = 3)) was 0 and the “Fatigue (related AE), patients” value (q3w 1.8 mg/kg (n = 3)) was 1. For the same molecule, the “Hypokalemia (related AE), patients” value (q3w 1.8 mg/kg (n = 3)) was 0, the “Hypomagnesaemia (related AE), patients” value (q3w 1.8 mg/kg (n = 3)) was 2 and the “Hypophosphatemia (related AE), patients” value (q3w 1.8 mg/kg (n = 3)) was 1. For the same molecule, the “Nausea (related AE), patients” value (q3w 1.8 mg/kg (n = 3)) was 1, the “Neutropenia (related AE), patients” value (q3w 1.8 mg/kg (n = 3)) was 0 and the “Peripheral neuropathy” value (q3w 1.8 mg/kg (n = 3)) was 2. The “Pyrexia (related AE), patients” value (q3w 1.8 mg/kg (n = 3)) was 2, the “Vomiting (related AE), patients” value (q3w 1.8 mg/kg (n = 3)) was 0 and the “Alopecia (related AE), patients” value (q3w 2.4 mg/kg (n = 39)) was 9. The “Any adverse events (related), patients” value (q3w 2.4 mg/kg (n = 39)) was 39, the “Arthralgia (related AE), patients” value (q3w 2.4 mg/kg (n = 39)) was 5 and the “Asthenia (related AE), patients” value (q3w 2.4 mg/kg (n = 39)) was 5. The “Decreased appetite (related AE), patients” value (q3w 2.4 mg/kg (n = 39)) was 11, the “Diarrhea (related AE), patients” value (q3w 2.4 mg/kg (n = 39)) was 8 and the “Dysgeusia (related AE), patients” value (q3w 2.4 mg/kg (n = 39)) was 7. The “Fatigue (related AE), patients” value (q3w 2.4 mg/kg (n = 39)) was 26, the “Hypokalemia (related AE), patients” value (q3w 2.4 mg/kg (n = 39)) was 4 and the “Hypomagnesaemia (related AE), patients” value (q3w 2.4 mg/kg (n = 39)) was 6. The “Hypophosphatemia (related AE), patients” value (q3w 2.4 mg/kg (n = 39)) was 2, the “Nausea (related AE), patients” value (q3w 2.4 mg/kg (n = 39)) was 15 and the “Neutropenia (related AE), patients” value (q3w 2.4 mg/kg (n = 39)) was 8. For the same molecule, the “Peripheral neuropathy” value (q3w 2.4 mg/kg (n = 39)) was 17, the “Pyrexia (related AE), patients” value (q3w 2.4 mg/kg (n = 39)) was 7 and the “Vomiting (related AE), patients” value (q3w 2.4 mg/kg (n = 39)) was 10. For the same molecule, the “Alopecia (related AE), patients” value (q3w 3.2 mg/kg (n = 3)) was 1, the “Any adverse events (related), patients” value (q3w 3.2 mg/kg (n = 3)) was 3 and the “Arthralgia (related AE), patients” value (q3w 3.2 mg/kg (n = 3)) was 1. The “Asthenia (related AE), patients” value (q3w 3.2 mg/kg (n = 3)) was 1, the “Decreased appetite (related AE), patients” value (q3w 3.2 mg/kg (n = 3)) was 1 and the “Diarrhea (related AE), patients” value (q3w 3.2 mg/kg (n = 3)) was 1. For the same molecule, the “Dysgeusia (related AE), patients” value (q3w 3.2 mg/kg (n = 3)) was 1, the “Fatigue (related AE), patients” value (q3w 3.2 mg/kg (n = 3)) was 2 and the “Hypokalemia (related AE), patients” value (q3w 3.2 mg/kg (n = 3)) was 2. The “Hypomagnesaemia (related AE), patients” value (q3w 3.2 mg/kg (n = 3)) was 0, the “Hypophosphatemia (related AE), patients” value (q3w 3.2 mg/kg (n = 3)) was 3 and the “Nausea (related AE), patients” value (q3w 3.2 mg/kg (n = 3)) was 3. For the same molecule, the “Neutropenia (related AE), patients” value (q3w 3.2 mg/kg (n = 3)) was 1, the “Peripheral neuropathy” value (q3w 3.2 mg/kg (n = 3)) was 1 and the “Pyrexia (related AE), patients” value (q3w 3.2 mg/kg (n = 3)) was 2. For the same molecule, the “Vomiting (related AE), patients” value (q3w 3.2 mg/kg (n = 3)) was 3, the “Alopecia (related AE), patients” value (q3w All Patients (n = 54)) was 11 and the “Any adverse events (related), patients” value (q3w All Patients (n = 54)) was 51. For the same molecule, the “Arthralgia (related AE), patients” value (q3w All Patients (n = 54)) was 8, the “Asthenia (related AE), patients” value (q3w All Patients (n = 54)) was 6 and the “Decreased appetite (related AE), patients” value (q3w All Patients (n = 54)) was 16. For the same molecule, the “Diarrhea (related AE), patients” value (q3w All Patients (n = 54)) was 13, the “Dysgeusia (related AE), patients” value (q3w All Patients (n = 54)) was 8 and the “Fatigue (related AE), patients” value (q3w All Patients (n = 54)) was 31. For the same molecule, the “Hypokalemia (related AE), patients” value (q3w All Patients (n = 54)) was 6, the “Hypomagnesaemia (related AE), patients” value (q3w All Patients (n = 54)) was 9 and the “Hypophosphatemia (related AE), patients” value (q3w All Patients (n = 54)) was 6. For the same molecule, the “Nausea (related AE), patients” value (q3w All Patients (n = 54)) was 20, the “Neutropenia (related AE), patients” value (q3w All Patients (n = 54)) was 9 and the “Peripheral neuropathy” value (q3w All Patients (n = 54)) was 21. The “Pyrexia (related AE), patients” value (q3w All Patients (n = 54)) was 11, the “Vomiting (related AE), patients” value (q3w All Patients (n = 54)) was 15 and the “patients with AEs leading to treatment discontinuation” value (q3w cohorts, 3/54 patients) was 5.6%. For the same molecule, the “Median time to onset of first PN on study” value (shortened to “Median time to onset”) (Prior neuropathy = No) was 71 days, the “On study PN = No, patients n (%)” value (Prior neuropathy = No) was 11 (20%) and the “On study PN = Yes, patients n (%)” value (Prior neuropathy = No) was 18 (33%). The “Median time to onset” value (Prior neuropathy = Yes) was 148 days, the “On study PN = No, patients n (%)” value (Prior neuropathy = Yes) was 20 (37%) and the “On study PN = Yes, patients n (%)” value (Prior neuropathy = Yes) was 5 (9%). The “Median time to onset” value (Total) was 99 days, the “On study PN = No, patients n (%)” value (Total) was 31 (57%) and the “On study PN = Yes, patients n (%)” value (Total) was 23 (43%). For the same molecule, the “Drug-related SAE hypocalcemia, patients” value (q3w patients) was 1, the “Drug-related SAE neutropenia, patients” value (q3w patients) was 1 and the “Drug-related SAE small intestine obstruction, patients” value (q3w patients) was 2. The “alopecia, related AE” value [1] was 20.4%, the “decreased appetite, related AE” value [1] was 29.6% and the “diarrhea, related AE” value [1] was 24.1%. For the same molecule, the “fatigue, related AE” value [1] was 57.4%, the “nausea, related AE” value [1] was 37.0% and the “peripheral sensory neuropathy, related AE” value [1] was 27.8%. For the same molecule, the “pyrexia, related AE” value [1] was 20.4%, the “vomiting, related AE” value [1] was 27.8% and the “Grade ≥3 related fatigue” value (q3w patients, total) was 7.4%. For the same molecule, the “Grade ≥3 related neutropenia” value (q3w patients, total) was 9.3%, the RP2D (q3w schedule) was 2.4 mg/kg and the “Grade ≥3 related fatigue, patients” value (q3w, at 2.4 mg/kg) was 4. For the same molecule, the “Grade ≥3 related neutropenia, patients” value (q3w, at 2.4 mg/kg) was 4.
